Measurements published in patent US20230304010A1, “COMPOSITIONS AND METHODS FOR TREATING VIRAL INFECTIONS” (priority 2020, published 2023).
Where “and” joins values, the source holds several entries; their conditions need not be identical. Equal entries are not always repeated. Where two headings read alike, the source gives them in different places.

Tests used:
[1] = biological target: SARS-CoV-2 Spike (SARS-CoV-2), P0DTC2; assay: inhibitor screening kit; ACE2:SARS-CoV-2 Spike (Example 4 assay)
[2] = biological target: SARS-CoV-2 Spike (SARS-CoV-2), P0DTC2; assay: inhibitor screening kit; SARS-CoV-2 Spike:ACE2 (Example 3 assay)
ACE2, Q9BYF1 [3] = biological target: ACE2, Q9BYF1
Sequence of ACE2, Q9BYF1 (Q9BYF1 18-740 limits assumed): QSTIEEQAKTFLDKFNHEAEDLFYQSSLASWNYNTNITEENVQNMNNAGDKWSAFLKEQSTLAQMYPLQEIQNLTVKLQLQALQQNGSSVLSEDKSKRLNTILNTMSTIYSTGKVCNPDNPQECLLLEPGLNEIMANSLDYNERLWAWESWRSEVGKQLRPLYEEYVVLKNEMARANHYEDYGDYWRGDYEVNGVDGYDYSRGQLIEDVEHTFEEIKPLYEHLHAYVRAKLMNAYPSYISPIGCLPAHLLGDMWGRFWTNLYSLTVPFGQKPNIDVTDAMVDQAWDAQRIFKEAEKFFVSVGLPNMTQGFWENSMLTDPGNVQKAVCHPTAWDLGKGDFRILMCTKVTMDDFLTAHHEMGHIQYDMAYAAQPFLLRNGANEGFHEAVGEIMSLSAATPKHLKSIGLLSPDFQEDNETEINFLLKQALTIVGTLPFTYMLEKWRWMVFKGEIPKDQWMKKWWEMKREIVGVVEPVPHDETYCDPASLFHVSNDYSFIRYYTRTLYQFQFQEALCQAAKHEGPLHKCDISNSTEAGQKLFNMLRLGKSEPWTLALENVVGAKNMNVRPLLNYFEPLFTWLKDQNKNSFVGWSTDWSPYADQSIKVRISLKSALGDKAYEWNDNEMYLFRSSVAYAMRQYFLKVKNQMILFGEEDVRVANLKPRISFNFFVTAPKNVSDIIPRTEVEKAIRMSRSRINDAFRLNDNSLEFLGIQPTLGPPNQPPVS

ACE2, Q9BYF1 [4] = assay: inhibitor screening kit, ADGN-106 nanoparticles (Example 6, section A)
[5] = biological target: SARS-CoV-2 Spike (SARS-CoV-2), P0DTC2
[6] = biological target: SARS-CoV-2 Spike (SARS-CoV-2), P0DTC2; assay: ACE2:SARS-CoV-2 Spike kit, ACE2 on plate, Spike-Fc added; competitor ACE2
[7] = biological target: SARS-CoV-2 Spike (SARS-CoV-2), P0DTC2; assay: SARS-CoV-2 Spike:ACE2 inhibitor screening kit (Example 4)
[8] = biological target: SARS-CoV-2 Spike (SARS-CoV-2), P0DTC2; assay: ACE2:SARS-CoV-2 Spike inhibitor screening kit (Example 3)
[9] = biological target: SARS-CoV-2 Spike (SARS-CoV-2), P0DTC2; remark: listed apart in the source
[10] = biological target: SARS-CoV-2 Spike (SARS-CoV-2), P0DTC2; assay: SARS-CoV-2 Spike:ACE2 inhibitor screening kit (Example 4); Table 7 prints 38.6
ACE2, Q9BYF1 [11] = assay: inhibitor screening kit, ADGN-106 nanoparticles (Example 6, section B)

Binder: KTFLDKFNHEAEDLFLWRALWRLWRSLWRLLWK (modifications not checked) [Seq34 (LNCOV-25)]
- IC50 [1]: > 1000 nM
- IC50 [2]: > 1000 nM

B1: Seq20 (LNCOV-24)/ADGN-106 nanoparticle complex (peptide)
peptide 1: SYGFQPTNGVLWRALWRLWRSLWRLLWK
peptide 2: LWRALWRLWRSLWRLLWK
modifications: not checked
- IC50 (ACE2, Q9BYF1 [3]): 3.7 nM and 8.7 nM
- fold more potent than SBP-1-ADGN-106/ADGN-106 complex (ACE2, Q9BYF1 [4]): 6 fold
- fold more potent than SBP-1 peptide/ADGN-106 complex (ACE2, Q9BYF1 [4]): 40 fold

Binder: TAWDLGKGDFRI (modifications not checked) [Seq29 (LNCOV-35)]
- IC50 [1]: > 10000 nM
- IC50 [2]: > 10000 nM

B2: Seq35 (LNCOV-26)/ADGN-106 nanoparticle complex (protein)
peptide 1: KTFLDKFNHEAEDLFYSLWRALWRLWRSLWRLLWK
peptide 2: LWRALWRLWRSLWRLLWK
modifications: not checked
- IC50 [5]: 217 nM and 55.4 nM

Binder: KTFLDKFNHEAEDLFYSLWRALWRLWRSLWRLLWK (modifications not checked) [Seq35 (LNCOV-26)]
- IC50 [1]: 728 nM
- IC50 [2]: 546 nM

Binder: EQAKTFLDKFNHEAEDLFLWRALWRLWRSLWRLLWK (modifications not checked) [Seq33 (LNCOV-18)]
- IC50 [1]: 18.4 nM
- IC50 [2]: 178 nM
- IC50 [6]: 18.4 nM
- fold more potent than SBP-1 coupled to ADGN-106 [7]: 8 fold
- fold more potent than free SBP-1 [7]: 14 fold

B3: Seq39 (LNCOV-31) (peptide)
peptide: EQAKTFLDKFNHEAEDLFPKWSAFLKEQSTLAQMYGLWRALWRLWRSLWRLLWK
modifications: not checked
- fold increase of efficiency over the uncoupled peptide (Seq27/Seq28) [8]: 1.4 fold
- IC50 [1]: 68.4 nM
- IC50 [2]: 55.2 nM

B4: Seq21 (LNCOV-13)/ADGN-106 nanoparticle complex (peptide)
peptide 1: GFQPTNGVKLWRALWRLWRSLWRLLWK
peptide 2: LWRALWRLWRSLWRLLWK
modifications: not checked
- IC50 (ACE2, Q9BYF1 [3]): 5.2 nM and 11.2 nM

Binder: NMTQGFWENSMLTD (modifications not checked) [Seq30 (LNCOV-36)]
- IC50 [1]: > 10000 nM
- IC50 [2]: > 10000 nM

B5: Seq40 (LNCOV-32) (peptide)
peptide: KTFLDKFNHEAEDLFPKWSAFLKEQSTLAQMYGLWRALWRLWRSLWRLLWK
modifications: not checked
- fold increase of efficiency over the uncoupled peptide (Seq27/Seq28) [8]: 1.4 fold
- IC50 [1]: 85.4 nM
- IC50 [2]: 45.1 nM

Binder: NMTQGFWENSMLTDLWRALWRLWRSLWRLLWK (modifications not checked) [Seq37 (LNCOV-29)]
- IC50 [1]: 645 nM
- IC50 [2]: > 1000 nM

B6: Seq32 (LNCOV-21)/ADGN-106 nanoparticle complex (protein)
peptide 1: IEEQAKTFLDKFNHEAEDLFYQSLWRALWRLWRSLWRLLWK
peptide 2: LWRALWRLWRSLWRLLWK
modifications: not checked
- IC50 [5]: 24.5 nM and 7.2 nM

Binder: EQAKTFLDKFNHEAEDLF (modifications not checked) [Seq24 (LNCOV-19)]
- IC50 [2]: 1300 nM
- IC50 [7]: 570 nM
- IC50 [9]: 570000 nM

Binder: NMTQGFWENPGGPTAWDLGK (modifications not checked) [Seq31 (LNCOV-37)]
- IC50 [8]: 25000 nM
- IC50 [1]: > 10000 nM
- IC50 [2]: > 10000 nM
- IC50 [7]: 25000 nM

Binder: KTFLDKFNHEAEDLF (modifications not checked) [Seq25 (LNCOV-33)]
- IC50 [1]: 1900 nM
- IC50 [2]: 2500 nM

B7: Seq38 (LNCOV-30)/ADGN-106 nanoparticle complex (protein)
peptide 1: NMTQGFWENPGGPTAWDLGKLWRALWRLWRSLWRLLWK
peptide 2: LWRALWRLWRSLWRLLWK
modifications: not checked
- IC50 [5]: 91.4 nM and 49.7 nM

Binder: KTFLDKFNHEAEDLFPGPKWSAFLKEQSTLAQMYG (modifications not checked) [Seq28 (LNCOV-20)]
- IC50 [8]: 50 nM
- fold more potent than SBP-1 coupled to ADGN-106 [8]: 6 fold
- fold more potent than free SBP-1 [8]: 15 fold
- IC50 [1]: 38.6 nM
- IC50 [2]: 58.7 nM
- IC50 [6]: 38.6 nM
- fold more potent than SBP-1 coupled to ADGN-106 [7]: 3.5 fold
- fold more potent than free SBP-1 [7]: 7 fold
- IC50 [10]: 38.5 nM

Binder: TAWDLGKGDFRILWRALWRLWRSLWRLLWK (modifications not checked) [Seq36 (LNCOV-28)]
- IC50 [1]: > 1000 nM
- IC50 [2]: > 1000 nM

Binder: KTFLDKFNHEAEDLFYS (modifications not checked) [Seq26 (LNCOV-34)]
- IC50 [1]: 2100 nM
- IC50 [2]: 1900 nM

B8: Seq17 (LNCOV-15)/ADGN-106 nanoparticle complex (peptide)
peptide 1: NGVEGFNKLWRALWRLWRSLWRLLWK
peptide 2: LWRALWRLWRSLWRLLWK
modifications: not checked
- IC50 (ACE2, Q9BYF1 [3]): 3.4 nM and 2.7 nM
- fold more potent than SBP-1-ADGN-106/ADGN-106 complex (ACE2, Q9BYF1 [11]): 4 fold
- fold more potent than SBP-1 peptide/ADGN-106 complex (ACE2, Q9BYF1 [11]): 35 fold
- fold more potent than SBP-1-ADGN-106/ADGN-106 complex (ACE2, Q9BYF1 [4]): 6 fold
- fold more potent than SBP-1 peptide/ADGN-106 complex (ACE2, Q9BYF1 [4]): 40 fold

Binder: EQAKTFLDKFNHEAEDLFPKWSAFLKEQSTLAQMYG (modifications not checked) [Seq27 (LNCOV-27)]
- IC50 [8]: 50 nM
- fold more potent than SBP-1 coupled to ADGN-106 [8]: 6 fold
- fold more potent than free SBP-1 [8]: 15 fold
- IC50 [1]: 37.4 nM
- IC50 [2]: 66.1 nM
- fold more potent than SBP-1 coupled to ADGN-106 [7]: 3.5 fold
- fold more potent than free SBP-1 [7]: 7 fold
